30 molecules from US20190367578A1 (Novo Nordisk, published 2019) can be followed below.

Common to all, as to test: cell-based or functional assay
In test [1] the target is human glucagon receptor (human) (UniProt P47871).
Test [2] has as its target T1, human GIP receptor (human) (UniProt P48546).
T1 sequence (looked up): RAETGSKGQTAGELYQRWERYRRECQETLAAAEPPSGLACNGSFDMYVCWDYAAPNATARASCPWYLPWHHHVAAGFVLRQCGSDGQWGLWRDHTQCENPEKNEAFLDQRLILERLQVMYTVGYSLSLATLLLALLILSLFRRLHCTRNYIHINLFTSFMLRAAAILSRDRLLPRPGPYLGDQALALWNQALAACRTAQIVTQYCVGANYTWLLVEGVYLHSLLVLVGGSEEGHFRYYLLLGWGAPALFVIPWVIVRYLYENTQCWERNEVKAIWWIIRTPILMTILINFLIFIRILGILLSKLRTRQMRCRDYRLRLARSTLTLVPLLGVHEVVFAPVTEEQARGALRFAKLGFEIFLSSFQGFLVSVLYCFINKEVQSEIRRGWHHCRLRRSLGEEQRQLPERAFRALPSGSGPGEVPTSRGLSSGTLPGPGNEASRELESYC

Test [3] has as its target human GLP-1 receptor (human) (UniProt P43220).

*1 amine or outer side, *2 acyl side, *3 side chain or, on linkers, in order; H or OH if unused. Where no end group is shown, it is not given here. Side-chain parts run from the residue outwards. [ ]: non-standard residue; d: D form. The star is where a group is joined. C20 diacid = O=C(O)CCCCCCCCCCCCCCCCCCC(=O)*; C18 diacid = O=C(O)CCCCCCCCCCCCCCCCC(=O)*; γGlu = O=C(O)[C@H](CCC(=O)[*:2])N[*:1]; Nle = CCCC[C@H](N)C(=O)O; AEEA = NCCOCCOCC(=O)O; Aib = CC(C)(N)C(=O)O Bounds are passed on as bounds.

Sequence of human glucagon receptor (human) (P47871 26-477): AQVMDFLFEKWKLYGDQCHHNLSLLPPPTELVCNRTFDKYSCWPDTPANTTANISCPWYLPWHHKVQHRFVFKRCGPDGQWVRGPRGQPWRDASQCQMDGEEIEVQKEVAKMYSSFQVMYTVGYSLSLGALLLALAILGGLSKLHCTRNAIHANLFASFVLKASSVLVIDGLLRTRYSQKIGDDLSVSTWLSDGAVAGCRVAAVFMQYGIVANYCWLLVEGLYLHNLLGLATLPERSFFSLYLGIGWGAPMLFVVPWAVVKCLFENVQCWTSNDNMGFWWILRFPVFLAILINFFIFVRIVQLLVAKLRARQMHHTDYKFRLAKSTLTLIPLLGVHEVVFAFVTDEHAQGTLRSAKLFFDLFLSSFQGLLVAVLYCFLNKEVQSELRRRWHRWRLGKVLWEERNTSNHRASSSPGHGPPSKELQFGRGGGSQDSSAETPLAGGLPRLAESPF
Sequence of human GLP-1 receptor (human) (P43220 24-463): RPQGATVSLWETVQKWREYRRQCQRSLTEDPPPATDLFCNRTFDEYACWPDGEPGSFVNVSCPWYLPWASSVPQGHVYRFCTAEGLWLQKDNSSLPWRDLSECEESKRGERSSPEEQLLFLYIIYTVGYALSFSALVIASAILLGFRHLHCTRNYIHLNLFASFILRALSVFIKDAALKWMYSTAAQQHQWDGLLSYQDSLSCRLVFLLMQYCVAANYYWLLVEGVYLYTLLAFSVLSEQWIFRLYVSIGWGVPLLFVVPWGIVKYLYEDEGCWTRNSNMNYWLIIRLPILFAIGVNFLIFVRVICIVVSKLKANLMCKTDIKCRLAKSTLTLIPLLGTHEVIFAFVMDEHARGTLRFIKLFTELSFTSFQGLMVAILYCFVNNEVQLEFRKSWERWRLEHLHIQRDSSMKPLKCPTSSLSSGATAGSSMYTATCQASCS

The molecule “N{1}-acetyl,N{Epsilon-24}-[(4S)-4-carboxy-4-[[(4S)-4-carboxy-4-[[(4S)-4-carboxy-4-[[(4S)-4-carboxy-4-[[4-[(19-carboxynonadecanoylamino)methyl]cyclohexanecarbonyl]amino]butanoyl]amino]butanoyl]amino]butanoyl]amino]butanoyl]-[D-Tyr1,Aib2,Nle14,Arg18,Lys24,Pro31]-hGIP(1-31) amide (peptide)” returned an EC50 (pM), hGcg-R CRE Luc, 1% HSA (footnote *) in test [1] of over 100000 pM. In test [2], this molecule displayed an EC50 (pM), hGIP-R CRE Luc, 0.2% HSA of 26.1 pM.

Regarding “N{Epsilon-24}-[(4S)-4-carboxy-4-[[(4S)-4-carboxy-4-[[(4S)-4-carboxy-4-[[4-[(19-carboxynonadecanoylamino)methyl]cyclohexanecarbonyl]amino]butanoyl]amino]butanoyl]amino]butanoyl]-[Aib2,Nle14,Arg18,Lys24,Pro31]-hGIP(1-31) amide (peptide)”, in test [2], the EC50 (pM), hGIP-R CRE Luc, 0.2% HSA was determined as 61.5 pM. The same measure, in the same setting: for “N{1}-acetyl, N{Epsilon-24}-[(4S)-4-carboxy-4-[[(4S)-4-carboxy-4-[[(4S)-4-carboxy-4-(17-carboxyheptadecanoylamino)butanoyl]amino]butanoyl]amino]butanoyl]-[D-Tyr1,Aib2,Nle14,Arg18,Lys24]-hGIP(1-31) (peptide)” the value was 20.9 pM. In the case of “N{1}-acetyl,N{Epsilon-24}-[(4S)-4-carboxy-4-[[(4S)-4-carboxy-4-[[(4S)-4-carboxy-4-(17-carboxyheptadecanoylamino)butanoyl]amino]butanoyl]amino]butanoyl]-[D-Tyr1,Aib2,Nle14,Arg18,Lys24,Pro31]-hGIP(1-31) amide (peptide)”, the EC50 (pM), hGIP-R CRE Luc, 0.2% HSA in test [2] was determined as 21.2 pM. Further, the EC50 (pM), hGLP-1-R CRE Luc, 0.2% HSA in test [3] was over 100000 pM.

For “N{Epsilon-24}-[2-[2-[2-[[2-[2-[2-[[(4S)-4-carboxy-4-[[4-[(19-carboxynonadecanoylamino)methyl]cyclohexanecarbonyl]amino]butanoyl]amino]ethoxy]ethoxy]acetyl]amino]ethoxy]ethoxy]acetyl]-[Aib2,Nle14,Arg18,Lys24]-hGIP(1-31) (peptide)”, the EC50 (pM), hGIP-R CRE Luc, 0.2% HSA in test [2] was determined as 44.7 pM. “N{Epsilon-24}-[(4S)-4-carboxy-4-[[(4S)-4-carboxy-4-[[(4S)-4-carboxy-4-[[4-[(19-carboxynonadecanoylamino)methyl]cyclohexanecarbonyl]amino]butanoyl]amino]butanoyl]amino]butanoyl]-[Aib2,Nle14,Arg18,Lys24]-hGIP(1-31) (peptide)” registered an EC50 (pM), hGIP-R CRE Luc, 0.2% HSA in test [2] of 72.1 pM. “N{1}-acetyl,N{Epsilon-24}-[(4S)-4-carboxy-4-[[(4S)-4-carboxy-4-[[(4S)-4-carboxy-4-[[4-[(19-carboxynonadecanoylamino)methyl]cyclohexanecarbonyl]amino]butanoyl]amino]butanoyl]amino]butanoyl]-[D-Tyr1,Aib2,Nle14,Arg18,Lys24]-hGIP(1-31) (peptide)” returned an EC50 (pM), hGIP-R CRE Luc, 0.2% HSA in test [2] of 135 pM.

In test [2], Y[Aib]EGTFISDYSIA[Nle]DKIHQEDFVK([γGlu-γGlu-γGlu-γGlu-C18 diacid])WLLAQKG had an EC50 (pM), hGIP-R CRE Luc, 0.2% HSA of 158 pM. Still for that read-out and setting: for Ac-[dY]AEGTFISDYSIA[Nle]DKIRQQDFVK([γGlu-γGlu-γGlu-4‑(aminomethyl)cyclohexanecarbonyl-C20 diacid])WLLAQKG the value was 180 pM; for Y[Aib]EGTFISDYSIA[Nle]DKIRQQDFVK([γGlu-γGlu-γGlu-4‑(aminomethyl)cyclohexanecarbonyl-C20 diacid])WLLAQKGKEEDWKHNITQ, 22 pM; for Ac-[dY]AEGTFISDYSIA[Nle]DKIRQQDFVK([γGlu-γGlu-γGlu-C18 diacid])WLLAQKG, 48.9 pM. Molecule Ac-[dY]AEGTFISDYSIA[Nle]DKIHQ[Aib]DFVK([γGlu-γGlu-γGlu-4‑(aminomethyl)cyclohexanecarbonyl-C20 diacid])WLLAQKG yielded an EC50 (pM), hGIP-R CRE Luc, 0.2% HSA in test [2] of 153 pM. On the same count and under the same terms, the value for Y[Aib]EGTFISDYSIA[Nle]DKIRQ[Aib]DFVK([γGlu-γGlu-γGlu-4‑(aminomethyl)cyclohexanecarbonyl-C20 diacid])WLLAQKG was 71.2 pM; that for Y[Aib]EGTFISDYSIA[Nle]DKIRQEDFVK([γGlu-γGlu-γGlu-C18 diacid])WLLAQKG was 62.9 pM; that for Y[Aib]EGTFISDYSIA[Nle]DAIRQQDFVK([γGlu-γGlu-γGlu-4‑(aminomethyl)cyclohexanecarbonyl-C20 diacid])WLLAQKG was 266 pM.

Regarding Ac-[dY]AEGTFISDYSIA[Nle]DKIRQQDFVK([γGlu-γGlu-γGlu-4‑(aminomethyl)cyclohexanecarbonyl-C20 diacid])WLLAQKP-NH2, the EC50 (pM), hGIP-R CRE Luc, 0.2% HSA in test [2] was 76.2 pM. On the same count and under the same terms, the value for Ac-[dY]AEGTFISDYSIA[Nle]DKIHQEDFVK([γGlu-γGlu-γGlu-4‑(aminomethyl)cyclohexanecarbonyl-C20 diacid])WLLAQKG was 547 pM; that for Ac-YAEGTFISDYSIA[Nle]DKIRQQDFVK([γGlu-γGlu-γGlu-C18 diacid])WLLAQKG was 546 pM; that for Ac-[dY]AEGTFISDYSIA[Nle]DKIRQQDFVK([AEEA-AEEA-γGlu-C18 diacid])WLLAQKG was 30.4 pM. Ac-[dY]AEGTFISDYSIA[Nle]DKIHQQDFVK([γGlu-γGlu-γGlu-4‑(aminomethyl)cyclohexanecarbonyl-C20 diacid])WLLAQKP-NH2: the EC50 (pM), hGIP-R CRE Luc, 0.2% HSA in test [2] was determined as 71.2 pM. As to Ac-[dY]AEGTFISDYSIA[Nle]DKIRQQDFVK([AEEA-AEEA-γGlu-γGlu-γGlu-C18 diacid])WLLAQKG, in test [2], the EC50 (pM), hGIP-R CRE Luc, 0.2% HSA was found to be 43.1 pM. In turn, Y[Aib]EGTFISDYSIA[Nle]DAIRQQDFVK([γGlu-γGlu-γGlu-C18 diacid])WLLAQKG registered an EC50 (pM), hGIP-R CRE Luc, 0.2% HSA in test [2] of 72.5 pM.

As for Y[Aib]EGTFISDYSIA[Nle]DKIRQ[Aib]DFVK([γGlu-γGlu-γGlu-C18 diacid])WLLAQKG, the EC50 (pM), hGIP-R CRE Luc, 0.2% HSA in test [2] came to 9.4 pM. The molecule Y[Aib]EGTFISDYSIA[Nle]DKIRQQDFVK([AEEA-AEEA-γGlu-4‑(aminomethyl)cyclohexanecarbonyl-C20 diacid])WLLAQKGKEEDWKHNITQ showed an EC50 (pM), hGIP-R CRE Luc, 0.2% HSA in test [2] of 14 pM. As to Ac-[dY][Aib]EGTFISDYSIA[Nle]DKIHQQDFVK([γGlu-γGlu-γGlu-4‑(aminomethyl)cyclohexanecarbonyl-C20 diacid])WLLAQKP-NH2, in test [2], the EC50 (pM), hGIP-R CRE Luc, 0.2% HSA stood at 38.4 pM.

With Y[Aib]EGTFISDYSIA[Nle]DKIHQQDFVK([γGlu-γGlu-γGlu-4‑(aminomethyl)cyclohexanecarbonyl-C20 diacid])WLLAQKP-NH2, the EC50 (pM), hGIP-R CRE Luc, 0.2% HSA in test [2] was found to be 67.5 pM. Still for that read-out and setting: for Ac-[dY]AEGTFISDYSIADDKIRQEDFVK([AEEA-AEEA-γGlu-C18 diacid])WLLAQKG the value was 91.5 pM; for Ac-[dY]AEGTFISDYSIA[Nle]DKIRQEDFVK([AEEA-AEEA-γGlu-C18 diacid])WLLAQKG, 25 pM; for Y[Aib]EGTFISDYSIA[Nle]DKIRQEDFVK([γGlu-γGlu-γGlu-4‑(aminomethyl)cyclohexanecarbonyl-C20 diacid])WLLAQKG, 252 pM. Same read-out and setting: the value for Y[Aib]EGTFISDYSIA[Nle]DKIHQEDFVK([γGlu-γGlu-γGlu-γGlu-4‑(aminomethyl)cyclohexanecarbonyl-C20 diacid])WLLAQKG was 810 pM.
